Source: the supplement of paper PMC10126150
± gives the standard deviation of the averaged measurements.

tested on: ATP; assay: switch fluorescence ratio, 500 uM ATP over buffer (Cy3 cluster intensity, sum of 5 cycles each) (fold (ratio)); higher = stronger signal-on switching upon ATP binding; sequences stand for … in TCGTCGGCAGCGTCAGATGTGTATAAGAGACAGTTTTTTTTTTTTTTTTTTTTTTTTT…TC; details: aptamer strand: ATP DNA aptamer (quencher-CACCTGGGGGAGTATTGCGGAGGAAGG + anchor), 100 nM annealed; ATP concentration: 500 uM
Method in brief: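 Between each of five buffer/ATP cycles, the flow-cell was stripped with NaOH and re-annealed. Each cycle imaged Cy3-labelled switching-strand clusters, annealed to 100 nM quencher-labelled ATP aptamer on a modified Illumina MiSeq flow-cell, first in selection buffer and then after 15 min with 500 uM ATP at 22 °C. The fluorescence ratio is summed target-cycle over summed buffer-cycle Cy3 intensity per cluster, averaged per switch-domain sequence, with clusters outside 100-1000 RFU excluded.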
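Also: ATP exposure 15 min at 22 °C before imaging.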

Row | Sequence | switch fluorescence ratio
1 | AGAAAGGGCC | 0.966 ± 0.055
2 | AGAAAGGTCT | 1.026 ± 0.0085
3 | AGAAATATAT | 1.23 ± 0.35
4 | AGAAATGATA | 1.001 ± 0.0019
5 | AGAAATTAGT | 1.03 ± 0.015
6 | AGAAATTCGA | 1.03 ± 0.012
7 | AGAACACAGT | 1.006 ± 0.0014
8 | AGAACATTGG | 0.985 ± 0.013
9 | AGAACCTTCG | 3.17 ± 0.38
10 | AGAACGGTGG | 0.9693 ± 0.0096
11 | AGAACTGTAA | 1.08 ± 0.034
12 | AGAACTTTTT | 0.98 ± 0.011
13 | AGAAGATGCT | 0.9797 ± 0.0088
14 | AGAAGATGTG | 0.973 ± 0.059
15 | AGAAGATTGG | 0.9723 ± 0.0053
16 | AGAAGCCCCC | 1.02 ± 0.048
17 | AGAAGGATGG | 0.983 ± 0.026
18 | AGAAGGATTA | 1 ± 0.017
19 | AGAAGGGCCC | 0.9967 ± 0.0016
20 | AGAAGGGGCG | 1.02 ± 0.06
21 | AGAAGGGGTT | 1.04 ± 0.053
22 | AGAAGGTCGG | 1.01 ± 0.036
23 | AGAAGTGCGG | 0.984 ± 0.032
24 | AGAATAAGTT | 1.013 ± 0.0018
25 | AGAATATTAG | 0.987 ± 0.037

Row | Sequence | switch fluorescence ratio
26 | AGAATATTGG | 0.982 ± 0.046
27 | AGAATCAGGC | 1.04 ± 0.17
28 | AGAATCCAGC | 0.982 ± 0.021
29 | AGAATCCGGG | 0.97 ± 0.041
30 | AGAATCGGCA | 0.997 ± 0.031
31 | AGAATGCACG | 0.957 ± 0.035
32 | AGAATGGCTT | 1 ± 0.041
33 | AGAATGGTCG | 1.03 ± 0.03
34 | AGAATGTGC | 0.9956 ± 0.0047
35 | AGAATTATCT | 1 ± 0.024
36 | AGAATTTGCG | 0.974 ± 0.018
37 | AGACAAAGA | 0.967 ± 0.022
38 | AGACAAAGCG | 1.03 ± 0.035
39 | AGACAATATT | 0.979 ± 0.032
40 | AGACAATTCA | 1.02 ± 0.019
41 | AGACACATCC | 1.11 ± 0.022
42 | AGACAGAGGG | 0.988 ± 0.012
43 | AGACAGCAGC | 1.05 ± 0.011
44 | AGACCGGGGA | 0.989 ± 0.033
45 | AGACCGTTCG | 1.02 ± 0.0066
46 | AGACCTAGAC | 1.05 ± 0.025
47 | AGACCTTTTA | 1 ± 0.063
48 | AGACGAGACT | 1.08 ± 0.03
49 | AGACGAGGTA | 1.03 ± 0.05
50 | AGACGAGTCT | 0.974 ± 0.03

Row | Sequence | switch fluorescence ratio
51 | AGACGGTAGC | 1.01 ± 0.026
52 | AGACGTTATT | 1.15 ± 0.1
53 | AGACTCCACC | 1.398 ± 0.0081
54 | AGACTGGGGG | 0.997 ± 0.033
55 | AGACTTTAAA | 1.01 ± 0.019
56 | AGAGACTATT | 1.01 ± 0.0095
57 | AGAGAGACGT | 0.995 ± 0.029
58 | AGAGAGGGAA | 1 ± 0.025
59 | AGAGAGGTTA | 1.02 ± 0.014
60 | AGAGAGTTTT | 0.984 ± 0.021
61 | AGAGATATGA | 1.0142 ± 0.00072
62 | AGAGATGCTT | 0.99 ± 0.032
63 | AGAGCAGGTT | 1.02 ± 0.014
64 | AGAGCATTGA | 1.013 ± 0.007
65 | AGAGCGCGCC | 1.02 ± 0.05
66 | AGAGCTGTTG | 1.01 ± 0.019
67 | AGAGGAAAAC | 1.08 ± 0.023
68 | AGAGGACTTT | 1.001 ± 0.0029
69 | AGAGGAGCGG | 1.02 ± 0.013
70 | AGAGGAGTTG | 1.03 ± 0.046
71 | AGAGGATGGG | 1 ± 0.034
72 | AGAGGCCTGT | 1.01 ± 0.0086
73 | AGAGGGAAGA | 1.01 ± 0.037
74 | AGAGGGCTGT | 1.01 ± 0.15
75 | AGAGGGGCAG | 0.961 ± 0.016

Row | Sequence | switch fluorescence ratio
76 | AGAGGGGCGT | 0.999 ± 0.033
77 | AGAGGGGGAA | 0.978 ± 0.014
78 | AGAGGGGGAG | 0.979 ± 0.027
79 | AGAGGGTCCA | 0.962 ± 0.021
80 | AGAGGGTTAA | 0.988 ± 0.031
81 | AGAGGTAACT | 0.993 ± 0.014
82 | AGAGGTAAGC | 1.02 ± 0.019
83 | AGAGGTCTAC | 0.982 ± 0.031
84 | AGAGGTGCAT | 1.02 ± 0.017
85 | AGAGTAATCG | 0.983 ± 0.07
86 | AGAGTACGTA | 1.041 ± 0.0065
87 | AGAGTAGAGT | 0.9995 ± 0.0088
88 | AGAGTAGGGG | 0.979 ± 0.029
89 | AGAGTATGG | 0.965 ± 0.035
90 | AGAGTATTTG | 0.994 ± 0.014
91 | AGAGTCGTTT | 0.9853 ± 0.0046
92 | AGAGTGAGAG | 0.9931 ± 0.0056
93 | AGAGTGAGGG | 0.977 ± 0.0012
94 | AGAGTGAGTT | 0.9533 ± 0.0045
95 | AGAGTGATCT | 0.98437 ± 0.00057
96 | AGAGTGATGT | 1 ± 0.041
97 | AGAGTGGACA | 1 ± 0.042
98 | AGAGTGGAGA | 1.009 ± 0.0004
99 | AGAGTGTAGG | 1.08 ± 0.034
100 | AGAGTGTGGC | 1.07 ± 0.039

Row | Sequence | switch fluorescence ratio
101 | AGAGTTAAAG | 0.9917 ± 0.0072
102 | AGAGTTAAGT | 0.989 ± 0.032
103 | AGAGTTACCG | 1.04 ± 0.017
104 | AGAGTTGGGT | 0.984 ± 0.02
105 | AGAGTTTGT | 0.987 ± 0.014
106 | AGATAATTGG | 1.007 ± 0.0061
107 | AGATACTTTC | 1.03 ± 0.024
108 | AGATAGGCGT | 0.9959 ± 0.0056
109 | AGATAGGGCA | 0.994 ± 0.032
110 | AGATAGTTGT | 1.01 ± 0.016
111 | AGATATAACT | 1.021 ± 0.0066
112 | AGATATGAAC | 1.04 ± 0.044
113 | AGATATTTTG | 0.988 ± 0.039
114 | AGATCAAGAG | 0.974 ± 0.04
115 | AGATCAGTGC | 0.997 ± 0.011
116 | AGATCATGCG | 1.02 ± 0.045
117 | AGATCGAGTA | 0.989 ± 0.033
118 | AGATCGGTTT | 1 ± 0.042
119 | AGATCTAAGG | 1 ± 0.019
120 | AGATCTTGCG | 0.979 ± 0.019
121 | AGATGAATTC | 0.982 ± 0.036
122 | AGATGAGCCG | 1.05 ± 0.11
123 | AGATGATATA | 0.999 ± 0.013
124 | AGATGCCTTC | 1.01 ± 0.029
125 | AGATGCTTTA | 0.9908 ± 0.0027

Row | Sequence | switch fluorescence ratio
126 | AGATGGAGCT | 0.9875 ± 0.0055
127 | AGATGGAGGA | 0.99 ± 0.033
128 | AGATGGGGAG | 1.04 ± 0.064
129 | AGATGGGGGA | 0.983 ± 0.026
130 | AGATGGTTGC | 0.958 ± 0.021
131 | AGATGTGACG | 0.9686 ± 0.0087
132 | AGATGTTTGG | 0.956 ± 0.027
133 | AGATTAAACA | 1.02 ± 0.032
134 | AGATTAGGGG | 1.04 ± 0.041
135 | AGATTAGTTC | 1.002 ± 0.0056
136 | AGATTAGTTG | 1.016 ± 0.0039
137 | AGATTATAGG | 1.01 ± 0.018
138 | AGATTCGTAC | 1.02 ± 0.021
139 | AGATTGCATA | 0.994 ± 0.015
140 | AGATTGGAAT | 0.9968 ± 0.0058
141 | AGATTGGTTA | 0.992 ± 0.021
142 | AGATTGTGCA | 0.963 ± 0.011
143 | AGATTGTTAG | 1.015 ± 0.0027
144 | AGATTTATCC | 0.977 ± 0.065
145 | AGATTTGGTT | 1.01 ± 0.032
146 | AGATTTGTGG | 0.9917 ± 0.0033
147 | AGATTTTCCG | 1.01 ± 0.023
148 | AGATTTTGCG | 0.991 ± 0.01
149 | AGATTTTTAA | 1.004 ± 0.0097
150 | AGATTTTTGA | 0.942 ± 0.069

Row | Sequence | switch fluorescence ratio
151 | AGATTTTTGT | 0.972 ± 0.019
152 | AGATTTTTTA | 0.954 ± 0.016
153 | AGCAAATAGT | 1.28 ± 0.028
154 | AGCAAGGGCA | 1.0103 ± 6.2e-05
155 | AGCAAGTCCT | 1.12 ± 0.015
156 | AGCAATAGTT | 2.97 ± 0.051
157 | AGCAATTGTG | 1.04 ± 0.029
158 | AGCACATTTG | 0.97 ± 0.017
159 | AGCACGGGAA | 1.03 ± 0.03
160 | AGCACGGTTA | 1.04 ± 0.049
161 | AGCACGTTAT | 1.256 ± 0.012
162 | AGCAGAGAAA | 0.982 ± 0.046
163 | AGCAGAGTTG | 1 ± 0.018
164 | AGCAGGAAGG | 0.9956 ± 0.0041
165 | AGCAGGGGTT | 1 ± 0.053
166 | AGCATAAGGC | 1.02 ± 0.019
167 | AGCATCACTT | 1.04 ± 0.029
168 | AGCATGAGTA | 1.01 ± 0.014
169 | AGCATGATGC | 0.991 ± 0.037
170 | AGCATGCCTG | 1.02 ± 0.058
171 | AGCATGGGGG | 1.01 ± 0.023
172 | AGCATGGTGG | 1.02 ± 0.046
173 | AGCATGTAGA | 0.989 ± 0.046
174 | AGCATTTTCC | 1.135 ± 0.0063
175 | AGCCAAAATA | 1.04 ± 0.017

Row | Sequence | switch fluorescence ratio
176 | AGCCAGGGAG | 1.028 ± 0.0056
177 | AGCCAGTTCG | 1 ± 0.012
178 | AGCCATATAG | 1.048 ± 0.0066
179 | AGCCCCATAG | 1.17 ± 0.042
180 | AGCCGAATTT | 0.997 ± 0.019
181 | AGCCGCCCCG | 1.1 ± 0.1
182 | AGCCGCTCGT | 0.99 ± 0.033
183 | AGCCGGGGTA | 0.995 ± 0.025
184 | AGCCGTACTC | 1.2 ± 0.23
185 | AGCCGTCAAC | 1.05 ± 0.041
186 | AGCCGTCCCC | 0.993 ± 0.02
187 | AGCCGTTTGA | 1.023 ± 0.0016
188 | AGCCTACTTT | 1 ± 0.038
189 | AGCCTAGGAT | 1.04 ± 0.0021
190 | AGCCTCGTGG | 0.992 ± 0.019
191 | AGCCTGACTG | 1.12 ± 0.033
192 | AGCGAAGGGG | 1.01 ± 0.047
193 | AGCGACGGGA | 1.1 ± 0.048
194 | AGCGAGGGA | 1.029 ± 0.0068
195 | AGCGAGTTTT | 1.01 ± 0.012
196 | AGCGATGGCC | 1.05 ± 0.028
197 | AGCGCAAGAT | 1.791 ± 0.013
198 | AGCGCGGTAA | 1 ± 0.013
199 | AGCGCGTTGT | 1.02 ± 0.044
200 | AGCGGAGAGT | 1 ± 0.029
